Measurements reported in publication PMC8408865.

Biological target: C-terminal domain of Caenorhabditis elegans KCC-1, wild type, as used in solution (SEC, SEC/MALS) (C. elegans)
Experiment: SEC

Substance “C-terminal domain of Caenorhabditis elegans KCC-1, wild type, as used in solution (SEC, SEC/MALS) (domain or fragment)” has a stoichiometry N of 2.
